In the assay the target is T1, Recombinant 6xHis-tagged human VDAC1 (Voltage-Dependent Anion Channel 1) (human, UniProt P21796 1-283).
T1 construct: Voltage-Dependent Anion selective Channel 1 (VDAC1), human; PDB 6G6U is the cited crystal structure of human VDAC1, used only for docking; also called mitochondrial porin; porin; not shown: His6, C-terminal, kept
Description: pull-down + SEC; 1 uM C-terminal His-tagged VDAC1 immobilised on Ni2+-Sepharose beads, incubated with 1 uM NHK1-FITC for 24 h; unbound peptide washed off; eluted with 200 mM imidazole; eluate loaded on Superdex200 and the complex detected by FSEC (ex/em 494/518 nm), with the VDAC1 profile at 280 nm. Particulars: both partners purified.

Primed or numbered codes have the meaning given here. Where no end group is shown, it is not given here. FITC′ = not defined here

T1 sequence (P21796 whole entry): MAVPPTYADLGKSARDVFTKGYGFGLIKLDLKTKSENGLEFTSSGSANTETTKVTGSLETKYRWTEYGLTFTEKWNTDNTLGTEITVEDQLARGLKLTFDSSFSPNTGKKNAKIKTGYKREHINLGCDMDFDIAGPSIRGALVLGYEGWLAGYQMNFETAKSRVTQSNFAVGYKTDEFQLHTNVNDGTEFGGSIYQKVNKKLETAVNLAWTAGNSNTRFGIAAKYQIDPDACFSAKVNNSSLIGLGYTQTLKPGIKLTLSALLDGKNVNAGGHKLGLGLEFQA

B1: NHK1-FITC peptide (FITC-labeled NHK1, residues 2-12 of human HK1) (peptide)
peptide: IAAQLLAYYFT-{FITC′}
notes: hexokinase 1 (HK1), human, amino acids 2-12; also called FITC-NHK1; NHKI; source: synthetic peptide, produced by Proteogenix
For the molecule B1, the binding result is on record as “binds”.

Values taken from paper PMC8392704, “Small Hexokinase 1 Peptide against Toxic SOD1 G93A Mitochondrial Accumulation in ALS Rescues the ATP-Related Respiration” (Biomedicines, 2021).
